Laboratory results: publication PMC6698902

Assays:
Test in all cases: fluorescence anisotropy
[1] = target: T1, A3B-CTD E255A (inactive, 'WT') (Homo sapiens, UniProt Q9UH17 187-382, E255A)
A3B-CTD P206G = A3B-CTD P206G (Homo sapiens, UniProt Q9UH17 187-382, E255A;P206G)
A3B-CTD R211A = A3B-CTD R211A (Homo sapiens, UniProt Q9UH17 187-382, E255A;R211A)
[2] = target: T1, A3B-CTD E255A (inactive, 'WT'); remark: listed apart in the source
A3B-CTD Y315F = A3B-CTD Y315F (Homo sapiens, UniProt Q9UH17 187-382, E255A;Y315F)
A3B-CTD Y315F, sequence (Q9UH17 187-382 E255A/Y315F): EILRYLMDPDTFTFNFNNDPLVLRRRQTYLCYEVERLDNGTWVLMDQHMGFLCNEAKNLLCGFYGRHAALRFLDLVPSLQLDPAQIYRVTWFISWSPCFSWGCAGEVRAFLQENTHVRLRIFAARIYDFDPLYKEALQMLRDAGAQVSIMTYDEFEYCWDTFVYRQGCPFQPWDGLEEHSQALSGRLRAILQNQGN

T1 sequence (Q9UH17 187-382 E255A): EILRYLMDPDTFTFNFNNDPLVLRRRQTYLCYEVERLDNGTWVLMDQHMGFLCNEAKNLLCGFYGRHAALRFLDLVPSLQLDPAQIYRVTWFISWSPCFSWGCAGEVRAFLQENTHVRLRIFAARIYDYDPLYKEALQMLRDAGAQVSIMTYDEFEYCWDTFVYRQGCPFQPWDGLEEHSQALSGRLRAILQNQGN
A3B-CTD P206G, sequence (Q9UH17 187-382 P206G/E255A): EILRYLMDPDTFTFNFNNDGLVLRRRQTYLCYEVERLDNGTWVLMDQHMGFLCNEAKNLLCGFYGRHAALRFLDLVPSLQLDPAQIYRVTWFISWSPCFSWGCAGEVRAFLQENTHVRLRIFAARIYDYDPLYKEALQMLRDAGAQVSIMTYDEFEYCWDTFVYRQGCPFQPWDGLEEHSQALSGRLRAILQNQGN
A3B-CTD R211A, sequence (Q9UH17 187-382 R211A/E255A): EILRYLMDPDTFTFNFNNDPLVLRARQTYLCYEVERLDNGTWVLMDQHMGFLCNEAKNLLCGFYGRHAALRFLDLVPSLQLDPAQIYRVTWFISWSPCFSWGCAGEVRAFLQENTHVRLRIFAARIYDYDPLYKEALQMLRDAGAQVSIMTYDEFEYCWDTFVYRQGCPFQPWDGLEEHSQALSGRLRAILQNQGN

| Binder | Kd [1] | binding result (A3B-CTD P206G) | binding result (A3B-CTD R211A) | binding result [2] | binding result (A3B-CTD Y315F) |
| --- | --- | --- | --- | --- | --- |
| AAAAAAAATCGAAAA (ssDNA) [polyA TCG (linear DNA)] | 5.4 µM | no binding | no binding | – | – |
| GCCAUCUAUCGAUGG (structured_RNA) [RNA hairpin] | – | – | – | no binding | – |
| GCCATCATTCGATGGG (structured_DNA) [DNA hairpin] | 2 µM | no binding | no binding | – | binds |
